In test [1] the test system is GFP-14-3-3β and its binding proteins. Put plainly: GFP-14-3-3β co-IP with LC-MS/MS label-free quantification, untreated versus PP1c-treated. The arrangement: species or system human. Particulars: PP1 vs untreated.
The subject of test [2] is GFP-14-3-3β. The test can be described thus: GFP-14-3-3β co-IP with LC-MS/MS, untreated GFP-14-3-3β versus GFP control (14-3-3 interactome). Format: binding, human. The note with it: untreated vs GFP.
Setting [3] is: LFQ intensities, 3 replicates each.

B1: C4BPA (protein, UniProt P04003 49-597, looked up)
C4b-binding protein alpha …: NCGPPPTLSFAAPMDITLTETRFKTGTTLKYTCLPGYVRSHSTQTLTCNSDGEWVYNTFCIYKRCRHPGELRNGQVEIKTDLSFGSQIEFSCSEGFFLIGSTTSRCEVQDRGVGWSHPLPQCEIVKCKPPPDIRNGRHSGEENFYAYGFSVTYSCDPRFSLLGHASISCTVENETIGVWRPSPPTCEKITCRKPDVSHGEMVSGFGPIYNYKDTIVFKCQKGFVLRGSSVIHCDADSKWNPSPPACEPNSCINLPDIPHASWETYPRPTKEDVYVVGTVLRYRCHPGYKPTTDEPTTVICQKNLRWTPYQGCEALCCPEPKLNNGEITQHRKSRPANHCVYFYGDEISFSCHETSRFSAICQGDGTWSPRTPSCGDICNFPPKIAHGHYKQSSSYSFFKEEIIYECDKGYILVGQAKLSCSYSHWSAPAPQCKALCRKPELVNGRLSVDKDQYVEPENVTIQCDSGYGVVGPQSITCSGNRTWYPEVPKCEWETPEGCEQVLTGKRLMQCLPNPEDVKMALEVYKLSLEIEQLELQRDSARQSTLDKEL
B1: in test [1] (label-free quantification), the “Difference (log2), PP1 vs untreated” value was 0.7487 log2. In addition, the “Difference (log2), untreated vs GFP” value in test [2] (label-free quantification) is recorded as -1.682 log2.

B2: MISP (protein, UniProt Q8IVT2 1-679, looked up)
Mitotic interactor and …: MDRVTRYPILGIPQAHRGTGLVLDGDTSYTYHLVCMGPEASGWGQDEPQTWPTDHRAQQGVQRQGVSYSVHAYTGQPSPRGLHSENREDEGWQVYRLGARDAHQGRPTWALRPEDGEDKEMKTYRLDAGDADPRRLCDLERERWAVIQGQAVRKSSTVATLQGTPDHGDPRTPGPPRSTPLEENVVDREQIDFLAARQQFLSLEQANKGAPHSSPARGTPAGTTPGASQAPKAFNKPHLANGHVVPIKPQVKGVVREENKVRAVPTWASVQVVDDPGSLASVESPGTPKETPIEREIRLAQEREADLREQRGLRQATDHQELVEIPTRPLLTKLSLITAPRRERGRPSLYVQRDIVQETQREEDHRREGLHVGRASTPDWVSEGPQPGLRRALSSDSILSPAPDARAADPAPEVRKVNRIPPDAYQPYLSPGTPQLEFSAFGAFGKPSSLSTAEAKAATSPKATMSPRHLSESSGKPLSTKQEASKPPRGCPQANRGVVRWEYFRLRPLRFRAPDEPQQAQVPHVWGWEVAGAPALRLQKSQSSDLLERERESVLRREQEVAEERRNALFPEVFSPTPDENSDQNSRSSSQASGITGSYSVSESPFFSPIHLHSNVAWTVEDPVDSAPPGQRKKEQWYAGINPSDGINSEVLEAIRVTRHKNAMAERWESRIYASEEDD
Take B2: the “Difference (log2), PP1 vs untreated” value in test [1] (label-free quantification) turned out to be 0.7397 log2. In addition, the “Difference (log2), untreated vs GFP” value in test [2] (label-free quantification) was -0.2245 log2.

B3: UBAP2L (protein, UniProt Q14157 1-1087, looked up)
Ubiquitin-associated protein …: MMTSVGTNRARGNWEQPQNQNQTQHKQRPQATAEQIRLAQMISDHNDADFEEKVKQLIDITGKNQDECVIALHDCNGDVNRAINVLLEGNPDTHSWEMVGKKKGVSGQKDGGQTESNEEGKENRDRDRDYSRRRGGPPRRGRGASRGREFRGQENGLDGTKSGGPSGRGTERGRRGRGRGRGGSGRRGGRFSAQGMGTFNPADYAEPANTDDNYGNSSGNTWNNTGHFEPDDGTSAWRTATEEWGTEDWNEDLSETKIFTASNVSSVPLPAENVTITAGQRIDLAVLLGKTPSTMENDSSNLDPSQAPSLAQPLVFSNSKQTAISQPASGNTFSHHSMVSMLGKGFGDVGEAKGGSTTGSQFLEQFKTAQALAQLAAQHSQSGSTTTSSWDMGSTTQSPSLVQYDLKNPSDSAVHSPFTKRQAFTPSSTMMEVFLQEKSPAVATSTAAPPPPSSPLPSKSTSAPQMSPGSSDNQSSSPQPAQQKLKQQKKKASLTSKIPALAVEMPGSADISGLNLQFGALQFGSEPVLSDYESTPTTSASSSQAPSSLYTSTASESSSTISSNQSQESGYQSGPIQSTTYTSQNNAQGPLYEQRSTQTRRYPSSISSSPQKDLTQAKNGFSSVQATQLQTTQSVEGATGSAVKSDSPSTSSIPPLNETVSAASLLTTTNQHSSSLGGLSHSEEIPNTTTTQHSSTLSTQQNTLSSSTSSGRTSTSTLLHTSVESEANLHSSSSTFSTTSSTVSAPPPVVSVSSSLNSGSSLGLSLGSNSTVTASTRSSVATTSGKAPPNLPPGVPPLLPNPYIMAPGLLHAYPPQVYGYDDLQMLQTRFPLDYYSIPFPTPTTPLTGRDGSLASNPYSGDLTKFGRGDASSPAPATTLAQPQQNQTQTHHTTQQTFLNPALPPGYSYTSLPYYTGVPGLPSTFQYGPAVFPVAPTSSKQHGVNVSVNASATPFQQPSGYGSHGYNTGVSVTSSNTGVPDISGSVYSKTQQSFEKQGFHSGTPAASFNLPSALGSGGPINPATAAAYPPAPFMHILTPHQQPHSQILHHHLQQDGQTGSGQRSQTSSIPQKPQTNKSAYNSYSWGAN
For the molecule B3, in test [1] (setting [3]), the “Difference (log2), PP1 vs untreated” value is on record as 0.7375 log2. For the same molecule, the “Difference (log2), untreated vs GFP” value in test [2] (setting [3]) is listed as -0.6949 log2.

B4: ATXN2L (protein, UniProt Q8WWM7 1-1075, looked up)
Ataxin-2-like protein: MLKPQPLQQPSQPQQPPPTQQAVARRPPGGTSPPNGGLPGPLATSAAPPGPPAAASPCLGPVAAAGSGLRRGAEGILAPQPPPPQQHQERPGAAAIGSARGQSTGKGPPQSPVFEGVYNNSRMLHFLTAVVGSTCDVKVKNGTTYEGIFKTLSSKFELAVDAVHRKASEPAGGPRREDIVDTMVFKPSDVMLVHFRNVDFNYATKDKFTDSAIAMNSKVNGEHKEKVLQRWEGGDSNSDDYDLESDMSNGWDPNEMFKFNEENYGVKTTYDSSLSSYTVPLEKDNSEEFRQRELRAAQLAREIESSPQYRLRIAMENDDGRTEEEKHSAVQRQGSGRESPSLASREGKYIPLPQRVREGPRGGVRCSSSRGGRPGLSSLPPRGPHHLDNSSPGPGSEARGINGGPSRMSPKAQRPLRGAKTLSSPSNRPSGETSVPPPPAVGRMYPPRSPKSAAPAPISASCPEPPIGSAVPTSSASIPVTSSVSDPGVGSISPASPKISLAPTDVKELSTKEPGRTLEPQELARIAGKVPGLQNEQKRFQLEELRKFGAQFKLQPSSSPENSLDPFPPRILKEEPKGKEKEVDGLLTSEPMGSPVSSKTESVSDKEDKPPLAPSGGTEGPEQPPPPCPSQTGSPPVGLIKGEDKDEGPVAEQVKKSTLNPNAKEFNPTKPLLSVNKSTSTPTSPGPRTHSTPSIPVLTAGQSGLYSPQYISYIPQIHMGPAVQAPQMYPYPVSNSVPGQQGKYRGAKGSLPPQRSDQHQPASAPPMMQAAAAAGPPLVAATPYSSYIPYNPQQFPGQPAMMQPMAHYPSQPVFAPMLQSNPRMLTSGSHPQAIVSSSTPQYPSAEQPTPQALYATVHQSYPHHATQLHAHQPQPATTPTGSQPQSQHAAPSPVQHQAGQAPHLGSGQPQQNLYHPGALTGTPPSLPPGPSAQSPQSSFPQPAAVYAIHHQQLPHGFTNMAHVTQAHVQTGITAAPPPHPGAPHPPQVMLLHPPQSHGGPPQGAVPQSGVPALSASTPSPYPYIGHPQGEQPGQAPGFPGGADDRIREFSLAGGIWHGRAEGLQVGQDARVLGGE
As to B4, in test [1] (label-free quantification), the “Difference (log2), PP1 vs untreated” value was found to be 0.7492 log2. Further, the “Difference (log2), untreated vs GFP” value in test [2] (label-free quantification) stood at 0.1548 log2.

B5: HNRNPF (protein, UniProt P52597 1-415, looked up)
Heterogeneous nuclear …: MMLGPEGGEGFVVKLRGLPWSCSVEDVQNFLSDCTIHDGAAGVHFIYTREGRQSGEAFVELGSEDDVKMALKKDRESMGHRYIEVFKSHRTEMDWVLKHSGPNSADSANDGFVRLRGLPFGCTKEEIVQFFSGLEIVPNGITLPVDPEGKITGEAFVQFASQELAEKALGKHKERIGHRYIEVFKSSQEEVRSYSDPPLKFMSVQRPGPYDRPGTARRYIGIVKQAGLERMRPGAYSTGYGGYEEYSGLSDGYGFTTDLFGRDLSYCLSGMYDHRYGDSEFTVQSTTGHCVHMRGLPYKATENDIYNFFSPLNPVRVHIEIGPDGRVTGEADVEFATHEEAVAAMSKDRANMQHRYIELFLNSTTGASNGAYSSQVMQGMGVSAAQATYSGLESQSVSGCYGAGYSGQNSMGGYD
With B5, the “Difference (log2), PP1 vs untreated” value in test [1] (label-free quantification) was found to be 0.766 log2. Also, the “Difference (log2), untreated vs GFP” value in test [2] (label-free quantification) is on record as -0.6522 log2.

B6: ASPH (protein, UniProt Q12797 1-758, looked up)
Aspartyl/asparaginyl …: MAQRKNAKSSGNSSSSGSGSGSTSAGSSSPGARRETKHGGHKNGRKGGLSGTSFFTWFMVIALLGVWTSVAVVWFDLVDYEEVLGKLGIYDADGDGDFDVDDAKVLLGLKERSTSEPAVPPEEAEPHTEPEEQVPVEAEPQNIEDEAKEQIQSLLHEMVHAEHVEGEDLQQEDGPTGEPQQEDDEFLMATDVDDRFETLEPEVSHEETEHSYHVEETVSQDCNQDMEEMMSEQENPDSSEPVVEDERLHHDTDDVTYQVYEEQAVYEPLENEGIEITEVTAPPEDNPVEDSQVIVEEVSIFPVEEQQEVPPETNRKTDDPEQKAKVKKKKPKLLNKFDKTIKAELDAAEKLRKRGKIEEAVNAFKELVRKYPQSPRARYGKAQCEDDLAEKRRSNEVLRGAIETYQEVASLPDVPADLLKLSLKRRSDRQQFLGHMRGSLLTLQRLVQLFPNDTSLKNDLGVGYLLIGDNDNAKKVYEEVLSVTPNDGFAKVHYGFILKAQNKIAESIPYLKEGIESGDPGTDDGRFYFHLGDAMQRVGNKEAYKWYELGHKRGHFASVWQRSLYNVNGLKAQPWWTPKETGYTELVKSLERNWKLIRDEGLAVMDKAKGLFLPEDENLREKGDWSQFTLWQQGRRNENACKGAPKTCTLLEKFPETTGCRRGQIKYSIMHPGTHVWPHTGPTNCRLRMHLGLVIPKEGCKIRCANETKTWEEGKVLIFDDSFEHEVWQDASSFRLIFIVDVWHPELTPQQRRSLPAI
Turning to B6, the “Difference (log2), PP1 vs untreated” value in test [1] (label-free quantification) was determined as 0.7413 log2. For the same molecule, the “Difference (log2), untreated vs GFP” value in test [2] (label-free quantification) turned out to be 0.9544 log2.

These data come from paper PMC7367873, “Dissecting the sequence determinants for dephosphorylation by the catalytic subunits of phosphatases PP1 and PP2A” (Nature Communications, 2020).
